Measurements as given in US20100041096.

How the values were obtained:
His-BARD1 14-189 = His-BARD1 14-189 (UniProt Q99728)
His-BARD1 1-320 = His-BARD1 1-320 (UniProt Q99728)
Chain of His-BARD1 1-320 (Q99728 1-320): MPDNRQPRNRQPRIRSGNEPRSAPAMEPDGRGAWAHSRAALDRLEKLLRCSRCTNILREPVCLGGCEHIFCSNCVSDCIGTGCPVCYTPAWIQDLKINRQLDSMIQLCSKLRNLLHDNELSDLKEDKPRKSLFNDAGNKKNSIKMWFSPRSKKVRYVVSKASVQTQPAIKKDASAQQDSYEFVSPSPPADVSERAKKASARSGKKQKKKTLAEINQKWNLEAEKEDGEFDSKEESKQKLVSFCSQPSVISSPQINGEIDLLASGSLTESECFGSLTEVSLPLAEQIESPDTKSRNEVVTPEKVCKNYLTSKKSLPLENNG

Chain of His-BARD1 14-189 (Q99728 14-189): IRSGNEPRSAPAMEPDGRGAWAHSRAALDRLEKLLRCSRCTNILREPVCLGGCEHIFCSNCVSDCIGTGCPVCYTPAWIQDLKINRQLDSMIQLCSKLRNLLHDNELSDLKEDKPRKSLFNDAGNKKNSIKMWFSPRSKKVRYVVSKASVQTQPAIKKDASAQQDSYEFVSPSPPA

| Substance | in vitro kinase assay ([gamma-32P]ATP, autoradiography) (His-BARD1 14-189) | in vitro kinase assay ([gamma-32P]ATP, autoradiography) (His-BARD1 1-320) |
| --- | --- | --- |
| CDK2-cyclin E1 | both His-BARD^14-180 and HA-BARD1^1-320 were phosphorylated in vitro with CDK2-cyclin E1 and CDK1-cyclinc B1 | both His-BARD^14-180 and HA-BARD1^1-320 were phosphorylated in vitro with CDK2-cyclin E1 and CDK1-cyclinc B1 |
| HA-CDK1-cyclin B1 | both His-BARD^14-180 and HA-BARD1^1-320 were phosphorylated in vitro with CDK2-cyclin E1 and CDK1-cyclinc B1 | both His-BARD^14-180 and HA-BARD1^1-320 were phosphorylated in vitro with CDK2-cyclin E1 and CDK1-cyclinc B1 |
